B1: viral Macrophage Inflammatory Protein-II (vMIP-II), human herpesvirus 8 (natural protein)
chain: GDTLGASWHRPDKCCLGYQKRPLPQVLLSSWYPTSQLCSKPGVIFLTKRGRQVCADKSKDWVKKLMQQLPVTAR
B2: viral Macrophage Inflammatory Protein-II (vMIP-II) (natural protein)
chain: B1 chain

Legend:
[1] = target: viral CC chemokine inhibitor (vCCI), rabbitpox virus (rabbitpox virus); assay: ITC
[2] = target: viral CC chemokine inhibitor (vCCI), rabbitpox, produced and refolded from E. coli (rabbitpox virus); assay: ITC

Binder | stoichiometry N [1] | Kd [2] [nM]
B1 | 0.759 | –
B2 | – | < 0.1

From article PMC5578167
